We go through 20 molecules from US20210380678A1 (SURROZEN OPERATING, published 2021).

Broadly, the Kd is the concentration at which binding is half-saturated. A high value points to lower affinity. Usually KD stands for the equilibrium constant for the complex coming apart. The low end stands for a tighter complex, the high end for a looser complex.

Test [1] addresses T1, human ZNRF3 extracellular domain (hZNRF3 ECD) (human, UniProt Q9ULT6 56-219, biotinylated (His-Avi tag)).
T1 construct: Expressed with a His-Avi tag at the N-terminus and biotinylated; also called ZRNF3
T1 sequence: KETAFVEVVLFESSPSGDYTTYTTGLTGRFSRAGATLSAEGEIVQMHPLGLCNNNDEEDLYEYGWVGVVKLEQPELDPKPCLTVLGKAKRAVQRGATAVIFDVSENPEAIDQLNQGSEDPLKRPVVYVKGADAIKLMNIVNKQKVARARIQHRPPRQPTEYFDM
Nature of the test: BLI (Octet), biotinylated antigen on SA sensor, 1:1 fit. How it is done:
(§1) Binding characterization of recombinant Fabs or IgG' s was carried out using Bio-Layer Interferometry (BLI) using the Octet Red 96 platform (PALL ForteBio, Fremont, Calif.) with streptavidin (SA) coated biosensors (PALL ForteBio,). […] Following immobilization, sensors were dipped into samples containing test molecules at seven concentrations. Values for KD were determined by fitting the resulting data with a 1:1 binding model.
A general note: In BLI a coated tip is dipped into the sample, and binding shifts an interference pattern.

Test [2] has as its target T1, human ZNRF3 extracellular domain …. As to the kind of experiment: BLI (Octet) KD grade: * = KD >= 1 uM. How it is done: as §1
The target is the same in test [3]. Nature of the test: BLI (Octet) KD grade: ** = 1 uM > KD >= 100 nM. Here is the method:
as §1

For test [4], the target named is T2, human RNF43 extracellular domain (hRNF43 ECD) (human, UniProt Q68DV7 44-197, biotinylated (His-Avi tag)).
T2 construct: Expressed with a His-Avi tag at the N-terminus and biotinylated; also called human RNF3 (Q44-D198)
T2 sequence: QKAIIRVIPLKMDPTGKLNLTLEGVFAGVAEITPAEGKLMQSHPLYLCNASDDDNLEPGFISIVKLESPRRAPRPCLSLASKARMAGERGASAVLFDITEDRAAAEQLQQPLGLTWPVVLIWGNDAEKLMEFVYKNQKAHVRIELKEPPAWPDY
As to the kind of experiment: ELISA (binding specificity).

For test [5], the target named is T1, human ZNRF3 extracellular domain …. Nature of the test: BLI (Octet) KD grade: *** = 100 nM > KD. How it is done: as §1

Numbering of substitutions follows the chain as printed.

B1: 028S-E08 (antibody, V domains shown)
VH: EVQLLESGGGLVQPGGSLRLSCAASGFSFSNYAMSWVRQAPGKGLEWVSAISGSGRTTYYADSVKGRFTISRDNSKNTLYLQMNSLRAEDTAVYYCARRTSSFSLWGQGTLVTVSS
VL: DIQMTQSPSSLSASVGDRVTITCRASQSINNWLAWYQQKPGKAPKLLIYKASSLESGVPSRFSGSGSGTDFTLTISSLQPEDFATYYCQQANTFPITFGQGTRLEIK
Turning to B1, the affinity in test [1], expressed as Kd, was 3900 nM. Also, the KD in test [2] is at least 1000 nM.

B2: 028S-G06 (antibody, V domains shown)
VH: EVQLLESGGGLVQPGGSLRLSCAASGFAFSNFAMIWVRQAPGKGLEWVSAISGSGGSTYYADSVKGRFTISRDNSKNTLYLQMNSLRAEDTAVYYCARLRANYGMDVWGQGTTVTVSS
VL: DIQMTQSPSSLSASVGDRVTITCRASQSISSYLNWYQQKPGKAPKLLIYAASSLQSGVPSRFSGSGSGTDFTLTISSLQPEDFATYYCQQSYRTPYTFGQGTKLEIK
With B2, the dissociation constant (KD) in test [3] fell in the range of 100 to 1000 nM. The dissociation constant (Kd) in test [1] was determined as 109 nM.

B3: 028S-B01 (antibody, V domains shown)
VH: QVQLVQSGAEVKKPGASVKVSCKASGYTFTAYYMHWVRQAPGQGLEWMGIINPNGGRTTYAQKFQGRVTMTRDTSTSTVYMELSSLRSEDTAVYYCARSFGVAGTLDYWGQGTLVTVSS
VL: DIVMTQSPLSLPVTPGEPASISCRSSQSLLHSNGYNYLDWYLQKPGQSPQLLIYDASNLETGVPDRFSGSGSGTDFTLKISRVEAEDVGVYYCMQTLHTPYTFGQGTKLEIK
With B3, the binding result in test [4] is on record as “binds”.

B4: 028S-B06 (antibody, V domains shown)
VH: QVQLVQSGAEVKKPGASVKVSCKASGYRFTNYYMHWVRQAPGQGLEWMGWISPNSGATNYAQNFQGRVTMTRDTSTSTVYMELSSLRSEDTAVYYCARGGRTTVTTMAYWGQGTLVTVSS
VL: B3 VL with D55G, N58S, E60Q, T61S, T96G, L97T, T99W, Y101R, L109V, E110D
Regarding B4, the KD in test [3] was in the range of 100 to 1000 nM. Moreover, binding in test [1] was characterised by a dissociation constant (Kd) of 764 nM.

B5: 028S-D02 (antibody, V domains shown)
VH: QVQLQQSGPGLVKPSQTLSLTCAISGDSVSSNSAAWYWIRQSPSRGLEWLGRTYYRSKWYHDYAVSVKSRITINADTSKNQFSLQLNSVTPEDTAVYYCARVVRAVDAFDIWGQGTMVTVSS
VL: ETTLTQSPGTLSLSPGERATLSCRASQSVNSRYLAWYQQKPGQAPRLLIYGASSRATGIPDRLTGSGSGTDFTLTISRLEPEDFAVYYCQQYGSSRLTFGGGTKVEIK
Regarding B5, the affinity in test [1], expressed as Kd, was 3320 nM. The molecule also yielded an equilibrium dissociation constant (KD) in test [2] of at least 1000 nM.

B6: 028S-E04 (antibody, V domains shown)
VH: EVQLLESGGGLVQPGGSLRLSCAASGFTFNNFGMSWVRQAPGKGLEWVSGISASGRNTYYADSVKGRFTISRDNSKNTLYLQMNSLRAEDRAVYYCARETRHGSDYWGQGTLVTVSS
VL: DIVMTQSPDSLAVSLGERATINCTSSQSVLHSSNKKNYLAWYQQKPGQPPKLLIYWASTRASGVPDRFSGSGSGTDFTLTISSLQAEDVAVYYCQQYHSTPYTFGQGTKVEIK
In test [1], B6 yielded a dissociation constant (Kd) of 95.3 nM. Besides, in test [5], the KD is below 100 nM.

B7: 028S-H04 (antibody, V domains shown)
VH: QVQLVQSGAEVKKPGASVKVSCKASGYTFIGYYMHWVRQAPGQGLEWLGWVNPKNGHTGYAQKFQGRVTMTRDTSTSTVYMELSSLRSEDTAVYYCAKDLEHTGYSSGWAGFDYWGQGTLVTVSS
VL: not shown
Take B7: the Kd in test [1] was found to be 48 nM. Also, the KD in test [5] was below 100 nM.

B8: 028S-G10 (antibody, V domains shown)
VH: QVQLVQSGAEVKKPGASVKVSCKASGYTFTSYGVSWVRQAPGQGLEWMGIINPRGGSTSYAQNFQGRVTMTRDTSTSTVYMELSSLRSEDTAVYYCARYSSSWSWPFDYWGQGTLVTVSS
VL: DIQMTQSPSSLSASVGDRVTITCRASQGISNNLNWYQQKPGKAPKLLIYAASTLQSGVPSRFSGSGSGTDFTLTISSLQPEDFATYYCQQSYSTPTFGQGTKVEIK
For the molecule B8, in test [3], the KD was in the range of 100 to 1000 nM. Also, in test [1], the affinity, expressed as Kd, was 684 nM.

B9: 028S-C03 (antibody, V domains shown)
VH: QVQLVQSGAEVKKPGASVKVSCKASGYTFSRYFMHWVRQAPGQGLEWMGWINPNSGGTRYAQNLQGRVTMTRDTSTSTVYMELSSLRSEDTAVYYCARDQKGKSSSWFRFDPWGQGTLVTVSS
VL: not shown
On to B9, for which the Kd in test [1] was 25.1 nM. This molecule also gave an equilibrium dissociation constant (KD) in test [5] below 100 nM.

B10: 028S-B07 (antibody, V domains shown)
VH: QVQLVQSGAEVKKPGASVKVSCKASGYTFTEYYMHWVRQAPGQGLEWMGWMNPNSGHAGSAQKFQGRVTMTRDTSTSTVYMELSSLRSEDTAVYYCARGRRSGLSPPAYWGQGTLVTVSS
VL: EIVMTQSPATLSVSPGERATLSCRASQSVSASLAWYQQKPGQAPRLLIYGASTRATGIPARFSGSGSGTEFTLTISSLQSEDFAVYYCHQYFSPPMTFGQGTRLEIK
Turning to B10, binding in test [1] was put at a Kd of 65.4 nM. This molecule also gave a KD in test [5] below 100 nM.

B11: 028S-A04 (antibody, V domains shown)
VH: QVQLVQSGAEVKKPGASVKVSCKASGYTFTNYKMHWVRQAPGQGLEWMGKINPSSGSTSYAQKFQGRVTMTRDTSTSTVYMELSSLRSEDTAVYYCARSGAGMWYFDLWGRGTLVTVSS
VL: DIQMTQSPSSLSASVGDRVTITCRASQDIYRYLNWYQQKPGKAPKLLIFAASSLHSGVPSRFSGSGSGTDFTLTISSLQPEDFATYYCQQSYTTPITFGQGTKVEIK
B11: binding in test [1] was characterised by a dissociation constant (Kd) of 36.2 nM. In test [5], this molecule came in with a KD below 100 nM.

B12: 028S-G01 (antibody, V domains shown)
VH: QVQLVQSGAEVKKPGASVKVSCKASGYTFTNYYMHWVRQAPGQGLEWMGWINPHSGGTNYAQKFQGRVTMTRDTSTSTVYMELSSLRSEDTAVYYCAREDYNWNDGWFDPWGQGTLVTVSS
VL: B11 VL with Q27E, D28N, Y30H, R31K, F49Y, H55Q, S91G, T93S, I96Y, V104L
As to B12, the binding result in test [4] is recorded as “binds”.

B13: 020S-E06 (antibody, V domains shown)
VH: QVQLVQSGAEVKKPGASVKVSCKASGYTFTGYYMHWVRQAPGQGLEWMGIINPSGGSTSYAQKFQGRVTMTRDTSTSTVYMELSSLRSEDTAVYYCARGRQGVWDYWGRGTLVTVSS
VL: DIQMTQSPSSLSASVGDRVTITCRSSQSIRTYLNWYQQKPGKAPKLLIYAASTLQSGVPSRFSGSGSGTDFTLTISSLQPEDFATYYCQQANSFPITFGGGTKVEIK
Take B13: the binding result in test [4] is reported as “binds”.

B14: 028S-B04 (antibody, V domains shown)
VH: B13 VH with T30R, G31R, Y33P, G99D, R100K, Q101V, V103A, W104I, R109Q
VL: B11 VL with D28G, Y30S, R31N, N34A, F49Y, H55Q, S56R, T93S, I96L, Q100G
B14 gave a dissociation constant (KD) in test [3] of 100 to 1000 nM. In test [1], the Kd worked out at 256 nM.

B15: 028S-C04 (antibody, V domains shown)
VH: B13 VH with G31R, R100G, Q101S, V103W, W104L, R109Q
VL: B13 VL with S25A, R30S, Y32W, N34A, A91S, N92Y, F94S, I96L
With B15, the equilibrium dissociation constant (KD) in test [3] was in the range of 100 to 1000 nM. The same molecule returned a Kd in test [1] of 164 nM.

B16: 028S-D04 (antibody, V domains shown)
VH: QVQLVQSGAEVKKPGASVKVSCKASGGTFSSYAISWVRQAPGQGLEWMGRISPNRGGTKYAQKFQGRVTMTRDTSTSTVYMELSSLRSEDTAVYYCARDSWLRGAWGYWGQGTLVTVSS
VL: B11 VL with D28S, Y30S, Y32W, N34A, F49Y, S53T, H55Q, Y92F, T93S, I96Y
On to B16, for which the dissociation constant (KD) in test [3] is 100 to 1000 nM. In test [1], this molecule gave a Kd of 874 nM.

B17: 020S-F06 (antibody, V domains shown)
VH: QVQLVQSGAEVKKPGASVKVSCKASGYTFTSYYLHWVRQAPGQGLEWMGWMNPNSGNTGYAQNFQGRVTMTRDTSTSTVYMELSSLRSEDTAVYYCARGDFWSGYYPYYYYYYGMDVWGQGTTVTVSS
VL: B11 VL with A25V, D28G, Y30S, R31S, F49Y, S53T, H55Q, T93G, T94A, I96L
With B17, in test [4], the binding result is “binds”.

B18: 028S-D09 (antibody, V domains shown)
VH: B13 VH with G31R, Y32H, R100S, Q101L, V103Y, W104F, Y106L
VL: not shown
B18 gave a KD in test [3] of 100 to 1000 nM. Besides, in test [1], the dissociation constant Kd turned out to be 354 nM.

B19: 028S-A11 (antibody, V domains shown)
VH: QVQLVQSGAEVKKPGASVKVSCKASGGTFSGYYMHWVRQAPGQGLEWMGWINPNRGGTSYAQNFQGRVTMTRDTSTSTVYMELSSLRSEDTAVYYCARGMYSSSWLRYWGQGTLVTVSS
VL: DIQMTQSPSSLSASVGDRVTITCRASQGISNYLAWYQQKPGKAPKLLIYAASSLQSGVPSRFSGSGSGTDFTLTISSLQPEDFATYYCQQGSSFPLTFGQGTKVDIK
B19 yielded a dissociation constant KD in test [3] of 100 to 1000 nM. In addition, the Kd in test [1] is 203 nM.

B20: 024S-A02 (antibody, V domains shown)
VH: EVQLVQSGAEVKKPGASVKVSCKASGYTFTSYAMHWVRQAPGQRLEWMGWINAGNGNTKYSQTFQGRVTITRDTSASTAYMELSSLRSEDTAVYYCARDLMVRGGPPFDYWGQGTLVTVSS
VL: not shown
Consider B20, for which the binding result in test [4] is recorded as “binds”.
